Assay results: US20240424060A1 (DOMPE FARMACEUTICI, published 2024)

B1: p75^NTR receptor immobilized on the SPR sensor surface (receptor)
chain: KEACPTGLYTHSGECCKACNLGEGVAQPCGANQTVCEPCLDSVTFSDVVSATEPCKPCTECVGLQSMSAPCVEADDAVCRCAYGYYQDETTGRCEACRVCEAGSGLVFSCQDKQNTVCEECPDGTYSDEANHVDPCLPCTVCEDTERQLRECTRWADAECEEIPGRWITRSTPPEGSDSTAPSTQEPEAPPEQDLIASTVAGVVTTVMGSSQPVVTRGTTDN
B2: TrKA receptor immobilized on the SPR sensor surface (receptor)
chain: AAPCPDACCPHGSSGLRCTRDGALDSLHHLPGAENLTELYIENQQHLQHLELRDLRGLGELRNLTIVKSGLRFVAPDAFHFTPRLSRLNLSFNALESLSWKTVQGLSLQELVLSGNPLHCSCALRWLQRWEEEGLGGVPEQKLQCHGQGPLAHMPNASCGVPTLKVQVPNASVDVGDDVLLRCQVEGRGLEQAGWILTELEQSATVMKSGGLPSLGLTLANVTSDLNRKNVTCWAENDVGRAEVSVQVNVSFPASVQLHTAVEMHHWCIPFSVDGQPAPSLRWLFNGSVLNETSFIFTEFLEPAANETVRHGCLRLNQPTHVNNGNYTLLAANPFGQASASIMAAFMDNPFEFNPEDPIPVSFSPVDTNSTSGDPVEKKDETPFGVSVAVG

How the values were obtained:
[1] = target: TrKA receptor immobilized on the SPR sensor surface; assay: SPR, receptor immobilized, steady-state 1:1 fit (KDeq)
[2] = target: p75^NTR receptor immobilized on the SPR sensor surface; assay: as above
[3] = target: T1, rhNGF-1: recombinant human NGF from R&D Systems Inc (product code: 256-GF/CF), manufactured in a mouse … (human, UniProt P01138 122-241; P01138 122-240; P01138 122-239; P01138 122-238); assay: as above
T1 construct: A commercial MIXTURE of isoforms, not a complex of four chains: the four entries are alternative forms

[4] = target: T2, Recombinant human NGF (rhNGF) having an aminoacid sequence of 118 aminoacids (rhNGF-118) (human, UniProt P01138 122-239); assay: as above
T2 construct: Made in E. coli from proNGF mutant SP174-101

[5] = target: T1, rhNGF-1: recombinant human NGF from R&D …; assay: SPR, receptor immobilized, kinetic Kd (Koff/Kon)
[6] = target: T2, Recombinant human NGF (rhNGF) having an …; assay: SPR, receptor immobilized, kinetic Kd (Koff/Kon)
[7] = target: T1, rhNGF-1: recombinant human NGF from R&D …; assay: SPR, receptor immobilized, kinetic fit (BIA evaluation)
[8] = target: T2, Recombinant human NGF (rhNGF) having an …; assay: as above

T2 sequence (P01138 122-239 limits assumed): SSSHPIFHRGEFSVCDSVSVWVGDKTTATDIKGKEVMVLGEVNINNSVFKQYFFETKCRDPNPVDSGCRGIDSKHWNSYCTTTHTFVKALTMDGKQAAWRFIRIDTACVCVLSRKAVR
T1 sequence (P01138 122-241 limits assumed, chain 1 of 4): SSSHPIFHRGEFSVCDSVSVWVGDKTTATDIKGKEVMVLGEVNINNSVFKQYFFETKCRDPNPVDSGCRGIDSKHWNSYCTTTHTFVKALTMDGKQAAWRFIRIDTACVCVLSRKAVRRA
T1 sequence (P01138 122-240 limits assumed, chain 2 of 4): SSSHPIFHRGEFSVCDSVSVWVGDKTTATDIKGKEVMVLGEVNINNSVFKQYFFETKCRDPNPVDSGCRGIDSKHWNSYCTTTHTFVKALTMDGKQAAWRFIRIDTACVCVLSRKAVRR
T1 sequence (P01138 122-239 limits assumed, chain 3 of 4): as the sequence (P01138 122-239 limits assumed) above
T1 sequence (P01138 122-238 limits assumed, chain 4 of 4): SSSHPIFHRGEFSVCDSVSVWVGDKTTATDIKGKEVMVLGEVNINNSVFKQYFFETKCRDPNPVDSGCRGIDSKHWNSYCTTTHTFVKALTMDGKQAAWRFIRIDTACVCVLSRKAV

| Molecule | Kd [1] [nM] | Kd [2] [nM] | Kd [3] [nM] | Kd [4] [nM] | Kd [5] [nM] | Kd [6] [nM] | koff [7] [s⁻¹] | kon [7] [M⁻¹ s⁻¹] | koff [8] [s⁻¹] | kon [8] [M⁻¹ s⁻¹] |
| --- | --- | --- | --- | --- | --- | --- | --- | --- | --- | --- |
| rhNGF2: recombinant human NGF from Active Bioscience (product code 1745.955), manufactured in CHO cells (from UniProt P01138 122-238) (ligand) | 3.85 | 15.7 | – | – | – | – | – | – | – | – |
| rhNGF3: recombinant human NGF from Sino Biological (product code: 11050-HNAC), manufactured in CHO cells (from UniProt P01138 122-238) (ligand) | 6 | 39.1 | – | – | – | – | – | – | – | – |
| B1 | – | – | 5.06 | 7.1 | 1.33 | 2.6 | 0.0111 | 8.3e+06 | – | – |
| B2 | – | – | 3.65 | 4.33 | 0.0792 | 0.38 | 0.00061 | 8.3e+06 | 0.00075 | 1.67e+06 |
